Patent US11479601B2, “Antibodies specific to Sonic Hedgehog and method of use thereof” (The Regents of the University of California, priority 2016, dated 2022)
“And” between values parts separate entries of the source, which are not always exact repeats. Identical values can stand only once.

Experiments:
[1] = system: GLI; experiment: Ex vivo GLI expression in excised A549 xenograft tumors; design: species or system mice; settings: tumors after 8 mg/kg treatment, versus IgG controls
Description: The in vivo effect of the C-terminal Shh antibodies were tested using the A549 cell subcutaneous xenograft tumor model in mice, as described in Example 1. After xenograft formation, animals were intra-tumor injected with a C terminal Shh antibody (2G4 or 2D9; each at 158 μg), or a control solution, 3 times a week for about 3 weeks (at 2-3 day intervals). Tumor volume was determined, as described in Example 1, every 2 days. Weight and size of the excised tumor were determined after the antibody treatment. […]
Total protein from whole-cell lysates was prepared with M-PER buffer (ThermoFisher Scientific) and from frozen tissues with T-PER (ThermoFisher Scientific) supplemented with protease and phosphatase inhibitors (Roche). Subsequently protein concentrations were determined via a Bradford assay. Equal quantities of proteins were combined with 5× protein loading buffer and separated by SDS-PAGE followed by PVDF membrane transfer. […]
Antibody-treated tumors were harvested to extract total RNA using Trizol (Invitrogen) and cDNA was synthesized using reverse transcriptase from iScript's cDNA Synthesis Kit (Bio-Rad). Real-time quantitative reverse transcript-polymerase chain reaction (qRT-PCR) was performed with TaqMan® Universal PCR Master Mix (Life Technologies) using gene specific PCR primers for human […] (Life Technologies). […]

[2] = system: A549 cell subcutaneous xenograft tumor; experiment: A549 subcutaneous xenograft, intra-tumor injection of C-terminal Shh antibody; format: in vivo, mice
Description: For xenograft formation, female nude mice, 5 to 10 weeks old, were injected subcutaneously (SC) with 10 million A549 cells in the dorsal area in a volume of […]. For SC inoculation of sorted cells, 1,500 cells of A549 Shh+ or Shh− cells were injected in a volume of […]. For intra-veinous injection of sorted cells, 1,000 cells of A549 Shh+ or Shh− cells were injected in the tail vein. For the in vivo treatment assay, after xenograft formation, animals were injected intravenously with cisplatin (10 mg/kg weekly), docetaxel (10 mg/kg twice a week) or vehicle, and intraperitoneally with GDC0449 (20 mg/kg daily) or vehicle. Each group consisted in 4-5 mice. Tumor size was determined twice a week, and tumor volumes were calculated using width (x) and length (y) (x^2y/2, where x<y). Tumors were collected after mice euthanasia, and cell dissociation was performed as for fresh human samples (cf supra). Flow cytometry and FACS were done as described supra. All animals were cared in accord with University of California San Francisco (UCSF) guidelines.
The in vivo effect of the C-terminal Shh antibodies were tested using the A549 cell subcutaneous xenograft tumor model in mice, as described in Example 1. After xenograft formation, animals were intra-tumor injected with a C terminal Shh antibody (2G4 or 2D9; each at 158 μg), or a control solution, 3 times a week for about 3 weeks (at 2-3 day intervals). Tumor volume was determined, as described in Example 1, every 2 days. Weight and size of the excised tumor were determined after the antibody treatment. A portion of the excised tumor was sectioned for immunohistochemical analysis of Shh protein expression, and RNA was extracted from another portion of the excised tumor for analysis of Gli1 expression.

[3] = system: NSCLC A549 cells; experiment: CellTiter-Glo cell viability assay, A549; format: cell-based, human; settings: 96 hours, compared with controls
Description: Logarithmically growing cells were plated in antibiotic-free medium supplemented with 2% fetal bovine serum at a density of 5,000 cells per well in clear-bottom 96-well plates. The next day cells were treated (triplicates) with increasing doses of in-house therapeutic antibodies (reconstituted in PBS) or PBS controls for 96 hours and subsequently assessed for cell viability by measuring ATP content with CellTiter-Glo Luminescent Cell Viability Assay (Promega). Signal intensity was measured on a Glomax™ 96 Microplate Luminometer (Promega) and percent cell survival was calculated based on the reading of PBS control cells set as 100%.

[4] = target: T1, Shh in A549 cells (Homo sapiens, UniProt Q15465); experiment: Flow cytometry of purified antibodies on A549 cells (vector control or pCMV-Shh); format: binding
T1 construct: 1) 293T (endogenous Shh), 2) 293T (bearing exogenously transfected Shh) and 3) A549 (Shh-expressing); endogenous in cells; host or cells: 293T and A549 (endogenous); also 293T and A549 transiently transfected with pCMV-Shh (Origene)
Description: A549, 293T or 293T (+pCMV Shh) cells were labeled with Sonic Hedgehog (Shh) antibody (Abcam 53281, 1:100) or therapeutic test antibodies (1:100) for 1 hour at RT post serum blocking. Following two PBS washes, a FITC-conjugated secondary antibody (Abcam 97029, 1:100) or an Alexa-Fluor 647 (Invitrogen, 1:1000) was used to label cells. Samples were screened by flow cytometry using an Accuri™ C6 machine (BD Biosciences). For fluorescence activated cell sorting, samples were sorted using an S3e™ Cell Sorter (Bio-Rad) and the Shh+ population was collected. For all experiments, cells processed without primary antibody served as a negative control. Experiments were performed in duplicates or triplicates.
For the purpose of selecting the best C-term Shh antibodies from over 50 hybridoma clones, two sets of screening assays were designed. First, the same Shh C-term peptides (AA 247-264 and 448-462, KLH-free version) used to mount an immune response in mice was employed in an ELISA-based assay with supernatants from antibody-producing hybridoma clonal cells. […] To confirm specific recognition, A549 (+vector control) cells and A549 cells transfected with exogenous Shh were labeled with 2G4 and 2D9 and assessed via flow cytometry. […] Finally, the Kd values of both antibodies with recombinant full-length Shh were calculated and nanomolar binding affinities were observed (FIG. 48C).

endogenous Shh recognized (flow cytometry) ([4]; A549 (+vector control)): 0.5% | exogenous Shh recognized (flow cytometry) ([4]; A549 cells transfected with exogenous Shh): 6%
B1: 2G4: purified mouse monoclonal C-terminal Shh antibody from hybridoma sub-clone 2G4 of clone 1C11, IgG1 kappa (antibody, V domains shown)
VH: EVKLVESGGGLVKPGGSLKLSCAASGFTFSSYTMSWVRQTPAKRLEWVATISSGGGNTYYPDSVKGRFTISRDNARNTLYLQMSSLRSEDTAMYYCARDYRSLFAYWGQGTLVTVSA
VL: QIVLTQSPAIMSASPGEKVTITCSASSSVSYMHWFQQKPGTSPKLWIYSTSNLASGVPARFSGSGSGTSYSLTISRMEAEDAATYYCQQRSSYPFTFGSGTKLEIK
GLI transcripts (qRT-PCR) and GLI polypeptide expression (Western blot) in tumors [1]: significant reduction in GLI transcripts | Average % change in tumor volume, relative to day −2 ([2]; Day 0): 104.50% | Average change in tumor volume ([2]; Day 0, 158 μg intra-tumor 3 times a week): 14.6 mm^3 | Average % change in tumor volume, relative to day −2 ([2]; Day 2): 90.20% | Average change in tumor volume ([2]; Day 2): −21.7 mm^3 | Average % change in tumor volume, relative to day −2 ([2]; Day 5): 103.10% | Average change in tumor volume ([2]; Day 5): 15.3 mm^3 | Average % change in tumor volume, relative to day −2 ([2]; Day 7): 105.80% | Average change in tumor volume ([2]; Day 7): 33.5 mm^3 | Average % change in tumor volume, relative to day −2 ([2]; Day 12): 121.90% | Average change in tumor volume ([2]; Day 12): 103 mm^3 | Average % change in tumor volume, relative to day −2 ([2]; Day 14): 137.70% | Average change in tumor volume ([2]; Day 14): 138.2 mm^3 | Average % change in tumor volume, relative to day −2 ([2]; Day 16): 148% | Average change in tumor volume ([2]; Day 16): 174.04 mm^3 | Average % change in tumor volume, relative to day −2 ([2]; Day 19): 189.60% | Average change in tumor volume ([2]; Day 19): 277.7 mm^3 | Average % change in tumor volume, relative to day −2 ([2]; Day 21): 202.40% | Average change in tumor volume ([2]; Day 21): 337.8 mm^3 | Average % change in tumor volume, relative to day −2 ([2]; Day −2): 100% | Weight of tumor after treatment, AVG ([2]; average of 3 animals): 0.0644 | Weight of tumor after treatment ([2]; individual animals): 0.048 and 0.0966 and 0.0486 | A549 tumor cell proliferation / cell viability [3]: marginally stronger anti-proliferative capacity
